# T1: citrate synthase (CS) (E. coli (endogenous in AVB101), UniProt P0ABH7 1-427)
# T1 sequence (looked up): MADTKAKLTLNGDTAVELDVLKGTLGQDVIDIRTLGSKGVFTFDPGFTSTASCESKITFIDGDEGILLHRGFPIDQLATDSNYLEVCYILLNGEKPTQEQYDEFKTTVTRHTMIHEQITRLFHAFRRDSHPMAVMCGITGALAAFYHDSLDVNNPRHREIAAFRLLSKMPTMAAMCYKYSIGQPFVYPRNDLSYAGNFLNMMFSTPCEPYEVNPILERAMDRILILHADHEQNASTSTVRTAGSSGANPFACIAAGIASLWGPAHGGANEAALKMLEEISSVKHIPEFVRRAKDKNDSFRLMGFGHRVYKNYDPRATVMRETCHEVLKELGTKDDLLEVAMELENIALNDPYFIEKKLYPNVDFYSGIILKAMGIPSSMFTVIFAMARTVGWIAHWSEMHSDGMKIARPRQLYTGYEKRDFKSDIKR
# Target: T1, citrate synthase (CS)
# Assay: cell-based or functional assay
binder,measurement,value
"Early Response to Dehydration 14 (ERD14) of A. thaliana, wild type, biotinylated in the cell (natural protein, UniProt P42763 1-185, looked up, biotin (in-cell biotinylation)) MAEEIKNVPEQEVPKVATEESSAEVTDRGLFDFLGKKKDETKPEETPIASEFEQKVHISEPEPEVKHESLLEKLHRSDSSSSSSSEEEGSDGEKRKKKKEKKKPTTEVEVKEEEKKGFMEKLKEKLPGHKKPEDGSAVAAAPVVVPPPVEEAHPVEKKGILEKIKEKLPGYHPKTTVEEEKKDKE","enthalpy change of unfolding (ΔHm) of 2 μM CS, two-state fit of the CD thermal denaturation, with 2, 5 and 13 μM purified WT ERD14 (396 falling to 316 kJ/mol; CS alone 475 kJ/mol)",94.6 kcal/mol
same,"melting temperature (Tm) of 2 μM CS, thermal denaturation followed by CD at 220 nm, with 2, 5 and 13 μM purified WT ERD14 (50.5 to 55.3 °C; CS alone 49.5 °C)",55.3 °C
